In paper PMC7889724:

Biological target: T1, recombinant full-length GST-UVR8 (Arabidopsis), Q9FN03
T1 chain: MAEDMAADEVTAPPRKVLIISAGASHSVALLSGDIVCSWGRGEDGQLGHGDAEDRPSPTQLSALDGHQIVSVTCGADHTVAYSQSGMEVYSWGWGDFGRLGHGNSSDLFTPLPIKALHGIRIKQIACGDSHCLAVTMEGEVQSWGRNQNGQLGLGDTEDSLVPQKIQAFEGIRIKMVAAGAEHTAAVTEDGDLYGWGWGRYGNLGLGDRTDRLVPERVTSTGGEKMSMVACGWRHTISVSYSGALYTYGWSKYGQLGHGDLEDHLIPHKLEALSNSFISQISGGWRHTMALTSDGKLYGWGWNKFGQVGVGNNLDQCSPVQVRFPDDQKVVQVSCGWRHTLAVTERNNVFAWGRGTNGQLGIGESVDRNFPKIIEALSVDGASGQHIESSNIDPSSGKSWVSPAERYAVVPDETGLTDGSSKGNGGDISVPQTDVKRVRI
Test: SDS-PAGE of non-boiled protein
Details: remark: other sources report otherwise

stoichiometry N: 2
B1: recombinant full-length GST-UVR8, Q9FN03 1-440 (receptor)
chain: MAEDMAADEVTAPPRKVLIISAGASHSVALLSGDIVCSWGRGEDGQLGHGDAEDRPSPTQLSALDGHQIVSVTCGADHTVAYSQSGMEVYSWGWGDFGRLGHGNSSDLFTPLPIKALHGIRIKQIACGDSHCLAVTMEGEVQSWGRNQNGQLGLGDTEDSLVPQKIQAFEGIRIKMVAAGAEHTAAVTEDGDLYGWGWGRYGNLGLGDRTDRLVPERVTSTGGEKMSMVACGWRHTISVSYSGALYTYGWSKYGQLGHGDLEDHLIPHKLEALSNSFISQISGGWRHTMALTSDGKLYGWGWNKFGQVGVGNNLDQCSPVQVRFPDDQKVVQVSCGWRHTLAVTERNNVFAWGRGTNGQLGIGESVDRNFPKIIEALSVDGASGQHIESSNIDPSSGKSWVSPAERYAVVPDETGLTDGSSKGNGGDISVPQTDVKRVRI
